Assays:
[1] = biological target: T1, IL-23 (human, p19/p40 heterodimer) (Homo sapiens, UniProt Q9NPF7;P29460 SEQ:20-189,SEQ:23-328); test: cell_activity; Pathscan pSTAT3, PHA blasts; details: tags: R&D Systems, carrier free
Experimental: (§1) PHA Blasts were isolated and prepared as described above and treated with hIL-23 at a final constant concentration of 6 ng/mL (R&D Systems, Minneapolis, Minn.) to induce STAT3 activation, instead of using 3 ng/mL as previously described with the TransAM™ assay. Clones were screened by using a 6-point […] titration from 0 to 700 nM in 3 fold dilutions in combination with a constant IL-23 concentration of 6 ng/mL of IL-23 (R&D Systems, Minneapolis, Minn.) to induce STAT3 activation, instead of using 3 ng/mL as previously described with the TransAM™ assay. Lysates of treated cells were prepared using the buffers provided by the Pathscan kit, and the assay was run according to the manufacturer's instructions. IC₅₀s for the full length clones were calculated from the dose response curves.

[2] = biological target: T1, IL-23 (human, p19/p40 heterodimer); test: cell_activity; Pathscan, +/-1; TransAM 40 nM; details: tags: R&D Systems, carrier free; G4
Experimental: as §1

[3] = biological target: T1, IL-23 (human, p19/p40 heterodimer); test: cell_activity; IL-23/IL-18 induced IFN-gamma, PHA blasts; details: tags: R&D Systems, carrier free
Experimental: (§2) PHA Blasts were isolated and prepared as described above. Once isolated, PHA Blasts were cultured for 4 days before use (with no re-feeding the night before use). After culturing for 4 days, an appropriate number of cells (enough for 0.5×10^6 cells per well) were collected, pelleted by centrifugation and washed with RPMI 1640 and 0.2% FBS (repeated twice). These cells were then serum starved by placement into 2, 150 mm sterile culture dishes with 25 mL of RPMI 1640-0.2% FBS each for 2-3 hours. Following serum starvation, cells were plated in a 96 well microtiter plate at a density of 0.5×10^6 cells per 200 μl of serum starved media.
(§3) IL-12/IL-18 or IL-23/IL-18 was used to induce IFN-γ production in PHA Blasts as follows. 10 μl of IL-23 (R&D Systems) at a concentration of 60 ng/mL (or 10 μl of IL-12 at a concentration of 20 ng/mL), and 10 μl of IL-18 (MBL) at a concentration of 200 ng/mL were added to the appropriate wells. […] Following incubation, 200 μl of supernatant was removed from each well and either flash frozen at −80° C., or quantified immediately for IFN-γ. An ELISA kit was used to quantify the IL-23/IL-18 and IL-12/IL-18 induced IFN-γ in PHA Blasts according to the manufacturer's recommended protocol (Recombinant human IFN-γ Quantikine Kit, R&D Systems, Minneapolis, Minn.). The colorimetric readout was quantified using a 96 well plate reader and absorbance values were graphed.

[4] = biological target: IL-12 (human, p35/p40 heterodimer) (Homo sapiens, UniProt P29459;P29460 SEQ:57-253,SEQ:23-328); test: cell_activity; IL-12/IL-18 induced IFN-gamma, PHA blasts
IL-12 (human, p35/p40 heterodimer), sequence (P29459 23-219, chain 1 of 2): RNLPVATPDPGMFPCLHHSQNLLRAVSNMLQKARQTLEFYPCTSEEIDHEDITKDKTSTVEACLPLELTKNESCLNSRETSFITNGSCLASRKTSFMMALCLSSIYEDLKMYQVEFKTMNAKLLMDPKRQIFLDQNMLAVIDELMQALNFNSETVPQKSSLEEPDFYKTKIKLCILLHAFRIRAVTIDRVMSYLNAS
IL-12 (human, p35/p40 heterodimer), sequence (P29460 23-328, chain 2 of 2): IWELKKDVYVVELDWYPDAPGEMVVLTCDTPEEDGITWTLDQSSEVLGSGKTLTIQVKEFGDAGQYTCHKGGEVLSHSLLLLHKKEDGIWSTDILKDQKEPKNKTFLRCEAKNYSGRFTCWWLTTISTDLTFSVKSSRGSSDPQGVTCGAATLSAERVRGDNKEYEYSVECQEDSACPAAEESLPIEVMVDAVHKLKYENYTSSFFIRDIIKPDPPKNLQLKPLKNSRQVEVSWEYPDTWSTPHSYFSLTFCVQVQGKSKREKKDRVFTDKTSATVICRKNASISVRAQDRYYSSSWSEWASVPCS
Experimental: as §2, §3

[5] = biological target: T1, IL-23 (human, p19/p40 heterodimer); test: competition; direct +tRNA 117 nM; details: tags: R&D Systems, carrier free
Experimental: (§4) Several of the minimized constructs from the dRmY Selection 2 were also assayed in a competition format in which cold aptamer was titrated and competed away trace ³²P ATP labeled aptamer In the competition assay, the [IL-23] was held constant, the [trace labeled aptamer] was held constant, and the [unlabeled aptamer] was varied. The KD was calculated by fitting the following equation to the data: Fraction aptamer bound=amplitude*([aptamer]/(KD+[aptamer]))+background binding.
Table 25 below summarizes the minimized sequences and the parent clone from which they were derived, and Table 26 summarizes the binding characterization from direct binding assays (+/−tRNA) and competition binding assays for the minimized constructs tested.

[6] = biological target: T1, IL-23 (human, p19/p40 heterodimer); test: competition; direct +tRNA 69 nM; details: tags: R&D Systems, carrier free
Experimental: The fraction aptamer bound vs. [IL-23] was used to calculate the KD by fitting the following equation to the data: Fraction aptamer bound=amplitude*([IL-23]/(KD+[IL-23]))+background binding.
as §4

[7] = biological target: T1, IL-23 (human, p19/p40 heterodimer); test: filter; -tRNA; competition 8 nM; details: tags: R&D Systems, carrier free
Experimental: These molecules were gel purified and assayed for IL-23 binding using the dot blot assay as described above and compared to each other and to the parent molecule, ARC979. An 8 point IL-23 titration (0 nM to 300 nM, 3 fold serial dilutions) was used in the binding assay.

[8] = biological target: T1, IL-23 (human, p19/p40 heterodimer); test: cell_activity; TransAM STAT3, PHA blasts, 3 ng/mL hIL-23; details: tags: R&D Systems
Experimental: (§5) In summary, the cell-based assay was conducted by isolating the peripheral blood mononuclear cells (PBMCs) from whole blood using a Histopaque gradient (Sigma, St. Louis, Mo.). The PBMCs were cultured for 3 to 5 days at 37° C./5% CO₂ in Peripheral Blood Medium (Sigma) which contains PHA, supplemented with IL-2 (100 units/mL) (R&D Systems, Minneapolis, Minn.), to generate PHA Blasts. To test IL-23 aptamers, the PHA Blasts were washed twice with 1×PBS, then serum starved for four hours in RPMI, 0.20% FBS. After serum starvation, approximately 2 million cells were aliquotted into appropriately labeled eppendorf tubes. hIL-23 at a final constant concentration of 3 ng/mL (R&D Systems, Minneapolis, Minn.) was combined with a dilution series of various IL-23 aptamers as described in Example 1, and the cytokine/aptamer mixture was added to the aliquotted cells in a final volume of 100 μl and incubated at 37° C. for 10-12 minutes. The incubation reaction was stopped by adding 1 mL of ice-cold PBS with 1.5 mM Na₃VO₄. Cell lysates were made using the lysis buffer provided by the TransAM™ STAT 3 assay following the manufacturer's instructions. FIG. 20 depicts a flow summary of the protocol used for the cell based assay.
(§6) Full length clones from the rRfY selection described in Example 1A, and select minimized rRfY clones that were described in Example 2A. […]

[9] = biological target: T1, IL-23 (human, p19/p40 heterodimer); test: cell_activity; TransAM STAT3, PHA blasts; Table 35 gives 1 uM for full length; details: tags: R&D Systems
Experimental: as §5, §6

[10] = biological target: T1, IL-23 (human, p19/p40 heterodimer); test: cell_activity; TransAM STAT3, PHA blasts; Table 35 gives 700 nM for full length; details: tags: R&D Systems
Experimental: as §5, §6

T1 sequence (Q9NPF7 20-189, chain 1 of 2): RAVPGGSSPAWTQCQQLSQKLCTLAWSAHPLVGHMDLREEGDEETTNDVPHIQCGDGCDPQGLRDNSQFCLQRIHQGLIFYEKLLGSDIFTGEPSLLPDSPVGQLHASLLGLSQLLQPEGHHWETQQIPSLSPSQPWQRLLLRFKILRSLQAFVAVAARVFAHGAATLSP
T1 sequence (P29460 23-328, chain 2 of 2): as the sequence (P29460 23-328, chain 2 of 2) above

B1: ARC1624 (mixed)
RNA: ACAGGCAAGUAAUUGGGGAGUGCGGGCGGGGUGU
modifications: 2'-OMe C,U and G16,G17,G24,G25,G30,G31; other A,G deoxy; PS 25-26,27-28,28-29; 3'-idT [2'-OMe C2,C6,U10,U13,U14,G16,G17,U21,C23,G24,G25,C27,G30,G31,U32,U34; other A,G deoxy; PS 25-26,27-28,28-29 (N = PS linkage, left out); 3'-inverted dT 35]
B1 showed an IC50 [1] of 2 nM.

B2: ARC979 (mixed)
RNA: B1 RNA
modifications: deoxy A,G; 2'-OMe C,U
With B2 the IC50 [2] was 6 nM.

B3: ARC1988 (mixed)
RNA: B1 RNA
modifications: ARC1623 with 5' 40 kDa PEG; 3'-idT
For B3, the IC50 [3] was about 4 nM and the IC50 [4] was about 122 nM.

B4: ARC792 (mixed)
RNA: GGCAAGUAAUUGGGGAGUGCGGGCGGGG
modifications: deoxy A,G; 2'-OMe C,U
Work on B4 yielded a Kd [5] of 11 nM.

B5: ARC794 (mixed)
RNA: GGCGGUACGGGGAGUGUGGGUUGGGGCCGG
modifications: deoxy A,G; 2'-OMe C,U
B5 was tested, and the Kd [6] was 14 nM.

B6: ARC1163 (mixed)
RNA: B1 RNA
modifications: deoxy A,G; 2'-OMe C,U; PS 21-22 [PS between 21-22; 2'-OMe C,U at 2,6,10,13,14,21,23,27,32,34; deoxy A,G at all other positions]
Binder B6 has a Kd [7] of 49 nM.

B7: AMX84-H12 family clone AMX91-H12 (ssRNA)
RNA: GGGAAAAGCGAAUCAUACACAAGACGUGUGCUUUAUGUAAACCAUAACGUUCCAUAAGGAAUAUGCUCCGCCAGAGACCAACCGAGAA
modifications: 2'-F C and U, 2'-OH A and G
Binder B7 has an IC50 [8] of 350 nM.

B8: AMX84-A10 (ssRNA)
RNA: GGGAAAAGCGAAUCAUACACAAGAAGUUUUUUGUGCUCUGAGUACUCAGCGUCCGUAAGGGAUAUGCUCCGCCAGAGACCAACCGAGAA
modifications: 2'-F C and U, 2'-OH A and G
B8 was tested, and the IC50 [9] was 400 nM.

B9: AMX84-B10 (ssRNA)
RNA: GGGAAAAGCGAAUCAUACACAAGAAGUGCUUCAUGCGGCAAACUGCAUGACGUCGAAUAGAUAUGCUCCGCCAGAGACCAACCGAGAA
modifications: 2'-F C and U, 2'-OH A and G
Work on B9 yielded an IC50 [10] of over 1000 nM.

Reference: US20060193821, “Aptamers to the human IL-12 cytokine family and their use as autoimmune disease therapeutics” (published 2006)
